Two substances from paper PMC8501884 can be followed below.

The target of assay [1] is NTD and CC region of CYK-4 (residues 1 to 120) (C. elegans). The assay is described as follows: crystal structure.
The target in assay [2] is dimerization domain of ZEN-4 (residues 530 to 601) (C. elegans). The assay is described as follows: crystal structure.

Substance “NTD and CC region of CYK-4 (residues 1 to 120) (domain or fragment)” came in with a stoichiometry N in assay [1] of 2.

On to “dimerization domain of ZEN-4 (residues 530 to 601) (domain or fragment)”, for which the stoichiometry N in assay [2] turned out to be 2.

Broadly, the stoichiometry N is a count of units in the complex or per binding partner.
